Measured values from patent US20250215412A1 (NOVOZYMES A S, published 2025).
Residue numbers refer to the chain shown, from its start.

What was measured:
Assay in all cases: cell-based or functional assay
[1] = biological target: T1, Chryseobacterium sp-62563 deamidase V190A (Chryseobacterium sp-62563)
T1 chain: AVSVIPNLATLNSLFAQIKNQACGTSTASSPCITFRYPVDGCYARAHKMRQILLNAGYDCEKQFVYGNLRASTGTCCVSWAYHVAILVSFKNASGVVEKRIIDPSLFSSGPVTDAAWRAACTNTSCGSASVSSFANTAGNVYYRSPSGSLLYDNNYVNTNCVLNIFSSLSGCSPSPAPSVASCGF

[2] = biological target: T2, Chryseobacterium sp-62563 deamidase V190F (Chryseobacterium sp-62563)
T2 chain: T1 chain with A81F

[3] = biological target: T3, Chryseobacterium sp-62563 deamidase V190Y (Chryseobacterium sp-62563)
T3 chain: T1 chain with A81Y

[4] = biological target: T4, Chryseobacterium sp-62563 deamidase S254K (Chryseobacterium sp-62563)
T4 chain: T1 chain with A81V, S145K

[5] = biological target: T5, Chryseobacterium sp-62563 deamidase S256D (Chryseobacterium sp-62563)
T5 chain: T1 chain with A81V, S147D

[6] = biological target: T6, Chryseobacterium sp-62563 deamidase S258E (Chryseobacterium sp-62563)
T6 chain: T1 chain with A81V, S149E

[7] = biological target: T7, Chryseobacterium sp-62563 deamidase L260K (Chryseobacterium sp-62563)
T7 chain: T1 chain with A81V, L151K

[8] = biological target: T8, Chryseobacterium sp-62563 deamidase P285D (Chryseobacterium sp-62563)
T8 chain: T1 chain with A81V, P176D

[9] = biological target: T9, Chryseobacterium sp-62563 deamidase V111A (Chryseobacterium sp-62563)
T9 chain: T1 chain with V2A, A81V

[10] = biological target: T10, Chryseobacterium sp-62563 deamidase C169S (Chryseobacterium sp-62563)
T10 chain: T1 chain with C60S, A81V

[11] = biological target: T11, Chryseobacterium sp-62563 deamidase C230S (Chryseobacterium sp-62563)
T11 chain: T1 chain with A81V, C121S

[12] = biological target: Chryseobacterium sp-62563 deamidase A131* (Chryseobacterium sp-62563)
[13] = biological target: Chryseobacterium sp-62563 deamidase D262* (Chryseobacterium sp-62563)
[14] = biological target: Chryseobacterium sp-62563 deamidase V148* (Chryseobacterium sp-62563)

B1: Chryseobacterium sp-62563 propeptide (first polypeptide, propeptide domain), wildtype (other)
chain: NQDPNLVAKESNETAMKDFGKTVPVGIEKEDGKFKISFMVTAQPYEIKDSKENAAYISMIKTAVENETPIHVFLKANTNEIAKVDKATDDDIRYFKSVFTKEVKEENRK
- NanoDSF thermal unfolding temperature [1]: 68.6 ° C.
- NanoDSF thermal unfolding temperature [2]: 78.2 ° C.
- NanoDSF thermal unfolding temperature [3]: 81.5 ° C.
- NanoDSF thermal unfolding temperature [4]: 81.1 ° C.
- NanoDSF thermal unfolding temperature [5]: 81.5 ° C.
- NanoDSF thermal unfolding temperature [6]: 78.3 ° C.
- NanoDSF thermal unfolding temperature [7]: 75.5 ° C.
- NanoDSF thermal unfolding temperature [8]: 65.8 ° C.
- Leakage activity [9]: 0%
- Leakage activity [10]: 0%
- Leakage activity [11]: 13%
- NanoDSF thermal unfolding temperature [12]: 79.1 ° C.
- NanoDSF thermal unfolding temperature [13]: 77.7 ° C.
- NanoDSF thermal unfolding temperature [14]: 69.2 ° C.
